According to patent US9255257B2, “PmST1 mutants for chemoenzymatic synthesis of sialyl lewis X compounds” (THE REGENTS OF THE UNIVERSITY OF CALIFORNIA, priority 2011, dated 2016):
Entries after “also recorded” stand apart in the source; their conditions may differ.

What was measured:
Format in all cases: biochemical
[1] = Apparent kinetics of the α2-3-sialidase activity (HPLC, fluorescent sialoside substrate); conditions: substrate Neu5Acα2-3LacβMU
Description: All the sialidase and α2-3-sialyltransferase assays were performed in an HPLC system. Reactions were stopped by adding 10 μL of ethanol. […] The mobile phase was 25% acetonitrile.
Kinetics of the α2-3-sialidase activity of PmST1 mutants.

[2] = Apparent kinetics of the α2-3-sialyltransferase activity, LacβMU acceptor and CMP-Neu5Ac donor (HPLC); conditions: acceptor LacβMU
Description: To obtain the apparent kinetic parameters of LacβMU as the acceptor for the α2-3-sialyltransferase activity, the kinetic assays were performed in duplicate in reaction mixtures of 10 μL containing Tris-HCl buffer (100 mM, pH 8.5), a fixed concentration of CMP-Neu5Ac (1 mM), different concentrations of LacβMU (0.2, 0.5, 1.0, 2.0, 5.0, and 9.0 mM) and the mutant proteins (2 μg mL^−1 of E271F, 2 μg mL^−1 of R313Y, and 1.6 μg mL^−1 of E271F/R313Y). All reactions were allowed to proceed at 37° C. for 5 min (E271F), 7 min (R313Y), and 10 min (E271F/R313Y). The apparent kinetic parameters were obtained by fitting the experimental data (the average values of duplicate assay results) into the Michaelis-Menten equation using Grafit 5.0.
To obtain the apparent kinetic parameters of CMP-Neu5Ac as the donor for the α2-3-sialyltransferase activity, the kinetic assays were performed in duplicate in reaction mixtures of 10 μL containing Tris-HCl buffer (100 mM, pH 8.5), a fixed concentration of LacβMU (1 mM), different concentrations of CMP-Neu5Ac (0.1, 0.2, 0.5, 1.0, 2.0, 5.0, 10.0 and 20.0 mM) and the mutant proteins (2 μg mL^−1 of E271F, 2 μg mL^−1 of R313Y, and 1.6 μg mL^−1 of E271F/R313Y). All reactions were allowed to proceed at 37° C. for 2 min (E271F), 7 min (R313Y), and 5 min (E271F/R313Y). The apparent kinetic parameters were obtained by fitting the experimental data (the average values of duplicate assay results) into the Michaelis-Menten equation using Grafit 5.0.
All the sialidase and α2-3-sialyltransferase assays were performed in an HPLC system. Reactions were stopped by adding 10 μL of ethanol. After necessary dilutions were performed to adjust the concentrations of the fluorescent-labeled compounds, the samples were then kept on ice until aliquots of 8 μL were injected and analyzed by a Shimadzu LC-6AD system equipped with a membrane on-line degasser, a temperature control unit, and a fluorescence detector (Shimadzu RF-10AXL). A reverse-phase Premier C18 column (250×4.6 mm i.d., 5 μm particle size, Shimadzu) protected with a C18 guard column cartridge was used. The mobile phase was 25% acetonitrile. The fluorescent compounds LacβMU and Neu5Acα2-3LacβMU were detected by excitation at 325 nm and emission at 372 nm.
Kinetics of the α2-3-sialyltransferase activity of PmST1 mutants by HPLC analysis. […] The supernatants were diluted with 25% acetonitrile and kept on ice until aliquots of 8 μL were injected and analyzed by the Shimadzu LC-6AD system equipped with a membrane on-line degasser, a temperature control unit, and a fluorescence detector (Shimadzu RF-10AXL). […] The fluorophore (MU)-labeled compounds were detected by excitation at 325 nm and emission at 372 nm. […]

[3] = Apparent kinetics of the α2-3-sialyltransferase activity, Le^xβMU acceptor and CMP-Neu5Ac donor (HPLC); conditions: acceptor Le^xβMU
[4] = Kinetics of the donor (CMP-Neu5Ac) hydrolysis activity by capillary electrophoresis
Description: The reactions were stopped by adding 10 μL of pre-chilled ethanol. The mixtures were incubated on ice for 30 min and centrifuged at 13,000 rpm for 5 min. The supernatants were diluted with borate buffer (25 mM, pH 9.5) and aliquotes of 5 μL each were injected to a Beckman Coulter P/ACE™ MDQ Capillary Electrophoresis system equipped with a capillary (60 cm×75 μm i.d.) and monitored at 254 nm. The apparent kinetic parameters were obtained by fitting the experimental data (the average values of duplicate assay results) into the Michaelis-Menten equation using Grafit 5.0.

[5] = α2-3-sialidase activity assay with sialyl Le^x substrate (HPLC); conditions: for Neu5Ac cleaved from Neu5Acα2-3Le^xβMU: substrate 1 mM, enzyme 4 mg mL^−1, MES pH 5.5, 37° C.
Description: The α2-3-sialidase activity assays of PmST1 and mutants. The reactions were carried out in duplicate in a total volume of 10 μL at 37° C. for 20 hr in MES buffer (100 mM, pH 5.5) containing Neu5Acα2-3Le^xβMU (1 mM) and an enzyme (4 mg mL^−1). Aliquots of 1 μL were withdrawn at 1 hr, 6 hr and 20 hr, and analyzed by HPLC as described above for the α2-3-sialyltransferase assays.

Row | Molecule | decrease of α2-3-sialidase activity (catalytic efficiency kcat/Km) compared to wild-type PmST1 [1] [fold] | decrease of kcat value, α2-3-sialyltransferase activity, compared to WT [2] [fold] | decrease of α2-3-sialyltransferase activity compared to WT [2] [fold] | increase of Km value, α2-3-sialyltransferase activity, compared to WT [2] [fold] | change of efficiency of α2-3-sialyltransferase activity compared to WT (in words) [3] | decrease of efficiency of CMP-Neu5Ac (donor) hydrolysis activity compared to WT [4] [fold] | decrease of kcat value, donor hydrolysis, compared to WT [4] [fold] | increase of Km value, donor hydrolysis, compared to WT [4] [fold] | sialidase activity with Neu5Acα2-3Le^xβMU as substrate (in words) [5] | increase of efficiency of α2-3-sialyltransferase activity compared to WT [3] [fold] | increase of kcat value, donor hydrolysis, compared to WT [4] [fold] | Neu5Ac cleaved from Neu5Acα2-3Le^xβMU ([5]; 1 h) [%] | Neu5Ac cleaved from Neu5Acα2-3Le^xβMU ([5]; 6 h) [%] | Neu5Ac cleaved from Neu5Acα2-3Le^xβMU ([5]; 20 h) [%]
1 | M144D (protein, listed as Pasteurella multocida, PmST1 wild-type glycosyltransferase family 80 (GT80), GT80 sialyltransferase, Pm0188Ph) MKNRRLNFKLFFLIIFSLFSTLSWSKTITLYLDPASLPALNQLMDFTQNNEDKTHPRIFGLSRFKIPDNIITQYQNIHFVELKDNRPTEALFTILDQYPGNIELNIHLNIAHSVQLIRPILAYRFKHLDRVSIQQLNLYDDGSDEYVDLEKEENKDISAEIKQAEKQLSHYLLTGKIKFDNPTIARYVWQSAFPVKYHFLSTDYFEKAEFLQPLKEYLAENYQKMDWTAYQQLTPEQQAFYLTLVGFNDEVKQSLEVQQAKFIFTGTTTWEGNTDVREYYAQQQLNLLNHFTQAEGDLFIGDHYKIYFKGHPRGGEINDYILNNAKNITNIPANISFEVLMMTGLLPDKVGGVASSLYFSLPKEKISHIIFTSNKQVKSKEDALNNPYVKVMRRLGIIDESQVIFWDSLKQL | 5588 | 2 | 18 | 9 | did not change the efficiency of the α2-3-sialyltransferase activity of PmST1 significantly; also recorded: without appreciably changing the efficiency of the α2-3-sialyltransferase activity | 20 | 4.2 | 4.9 | no sialidase activity |  |  |  |  | 
2 | M144H (protein) MKNRRLNFKLFFLIIFSLFSTLSWSKTITLYLDPASLPALNQLMDFTQNNEDKTHPRIFGLSRFKIPDNIITQYQNIHFVELKDNRPTEALFTILDQYPGNIELNIHLNIAHSVQLIRPILAYRFKHLDRVSIQQLNLYDDGSHEYVDLEKEENKDISAEIKQAEKQLSHYLLTGKIKFDNPTIARYVWQSAFPVKYHFLSTDYFEKAEFLQPLKEYLAENYQKMDWTAYQQLTPEQQAFYLTLVGFNDEVKQSLEVQQAKFIFTGTTTWEGNTDVREYYAQQQLNLLNHFTQAEGDLFIGDHYKIYFKGHPRGGEINDYILNNAKNITNIPANISFEVLMMTGLLPDKVGGVASSLYFSLPKEKISHIIFTSNKQVKSKEDALNNPYVKVMRRLGIIDESQVIFWDSLKQL | 594 |  | 1.3 |  |  | 3.3 |  | 8.7 | increased sialidase activity compared to the WT PmST1 | 2.6 | 2.6 | 10.0 | 24.5 | 34.0
